Test results reported in paper PMC8304084, “A Concerted Action of UBA5 C-Terminal Unstructured Regions Is Important for Transfer of Activated UFM1 to UFC1” (International Journal of Molecular Sciences, 2021).

Experiments:
UFM1 = target: T1, UFM1 (Homo sapiens, UniProt P61960); test: ITC, UBA5 peptides vs UFM1; assay type: binding; details: 25 °C
T1 construct: Full length UFM1, residues 2–83; modified ubiquitin tag (Ub19) with TEV site (N, cleaved yes); made in house; host or cells: E. coli T7 Express
T1 sequence (P61960 2-83): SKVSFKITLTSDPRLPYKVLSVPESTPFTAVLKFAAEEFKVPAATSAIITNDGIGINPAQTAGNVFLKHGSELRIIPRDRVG
From the text: (§1) To understand how the UBA5 C-terminus participates in the ufmylation cascade, we performed isothermal titration calorimetry (ITC) experiments, in which we titrated UBA5 C-terminal peptides (see Table 1) to the UBA5 AD, UFC1, UFM1 and representative LC3/GABARAP proteins (Figure 2A, Supplementary Figure S2A–D and Table 2).
(§2) All proteins and peptides were expressed in E.Coli T7 Express (New England Biolabs GmbH, Frankfurt, Germany) cells in LB or M9 (to obtain ^15N- and ^13C,^15N-labeled polypeptides) media according to the protocol described in [33, 36]. For protein purification, bacterial cell pellets were resuspended in lysis buffer (50 mM Tris-HCl pH = 7.5, 100 mM NaCl, 5% glycerol, 5 mM PIC (protease inhibitor cocktail)) and lysed via sonication (TT13 Sonotrode, 40% amplitude, for 6 × 1 min with a 0.5/0.5-s pulse). Lysates were centrifuged for 45 min at 17,000× g at 4 °C. Supernatants were loaded onto a His Trap Fast Flow 5 mL column (GE Healthcare, München, Germany) equilibrated in loading buffer (50 mM Tris-HCl pH = 8.0, 250 mM NaCl, 1% glycerol, 20 mM imidazole). The column was washed with loading buffer for 5–10 CV and protein was eluted with elution buffer (50 mM Tris-HCl pH = 8, 250 mM NaCl, 1% glycerol, 400 mM imidazole). Simultaneous TEV cleavage (1 mg TEV protease was added to 100 mg peptides/proteins) and buffer exchange to loading buffer via dialysis was performed over night at 4 °C. After reverse IMAC, proteins were concentrated with conical concentrators (Millipore Merck, Darmstadt, Germany) and loaded on a Superdex 10/60 75 or 200 column (GE Healthcare, München, Germany) for further purification and equilibration with ITC/NMR buffer (25 mM HEPES pH = 7.5, 100 mM NaCl). For structural NMR spectroscopy, buffer containing 50 mM Tris-HCl pH = 7.5, 100 mM NaCl was used. Prior to NMR experiments, TCEP and protease inhibitors cocktail were added to the samples to final concentrations 1 and 5 mM, respectively. Purified peptides and protein were concentrated and stored at −80 °C. The protein and peptide concentrations were calculated from the UV absorption at 280 nm by Nanodrop spectrophotometer (Thermo Scientific, Langenselbold, Germany).
(§3) All ITC experiments were performed at 25 °C using a VP-ITC microcalorimeter (Malvern Panalytical Ltd., Malvern, UK). Peptides in concentration of ~400 µM were titrated into 20–25 µM solutions of corresponding binding partner at a stirring speed of 307 rpm. The raw data were corrected on the dilution heat of peptides obtained in independent experiment (titration of the peptide in syringe into the ITC/NMR buffer in the measuring cell). Pre-titration delay was set to 180 s, interval between titration steps was experimentally adjusted to avoid kinetic contribution to the observed heat effects and set to 200 s. A single ITC profile was collected for each type of interaction. The ITC data were analyzed based on a “one-site” binding model with MicroCal ITC software implemented in Origin 7.0.

GABARAPL2 = target: T2, GABARAPL2 (Homo sapiens, UniProt P60520); test: ITC, UBA5 peptides vs GABARAPL2; assay type: binding; details: 25 °C
T2 construct: modified ubiquitin tag (Ub19) with TEV site (N, cleaved yes); made in house; host or cells: E. coli T7 Express
T2 sequence (P60520 3-116): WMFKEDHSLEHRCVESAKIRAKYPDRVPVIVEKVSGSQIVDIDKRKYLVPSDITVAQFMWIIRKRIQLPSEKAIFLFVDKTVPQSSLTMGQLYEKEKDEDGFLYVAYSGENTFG
From the text: as §1, §2, §3

UFC1 [1] = target: T3, UFC1 (Homo sapiens, UniProt Q9Y3C8); test: ITC, UBA5 constructs vs UFC1; assay type: binding
T3 construct: Full length UFC1, residues 1–167; modified ubiquitin tag (Ub19) with TEV site (N, cleaved yes); made in house; host or cells: E. coli T7 Express
T3 sequence (Q9Y3C8 1-167): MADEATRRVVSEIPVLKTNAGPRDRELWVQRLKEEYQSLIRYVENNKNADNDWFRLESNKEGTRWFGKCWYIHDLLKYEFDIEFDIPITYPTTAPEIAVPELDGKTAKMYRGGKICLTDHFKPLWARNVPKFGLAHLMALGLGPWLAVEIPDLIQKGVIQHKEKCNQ
From the text: as §1
To investigate if conjugation of UFM1 to the UBA5 catalytic cysteine (C250) affects the UFC1:UBA5 interactions, we prepared full length UBA5 C250K mutant and stably conjugated UFM1 to it as reported before for a number of ubiquitin-specific E2 enzymes. We compared the UFC1 spectra after addition of a twofold molar excess of FL^1–404 and FL^1–404 C250K~UFM1 constructs (Supplementary Figure S5C).
as §2, §3

UFC1 [2] = target: T3, UFC1; test: In vitro thioester formation (ufmylation) assay, UFC1~UFM1 conjugate; assay type: biochemical; details: 1 mM ATP, 22 °C; peptides added to UBA5 AD^1–330 where applicable
Method: First, we analyzed the effect of the UBA5 C-terminus on UFM1 transfer to UFC1 with an in vitro thioester formation assay (Figure 1B–E).
Ufmylation reaction assays were adopted from work of Xie. Briefly, 70 µM UFM1, 20 µM UFC1 and 20 µM of different UBA5 constructs were mixed in reaction buffer (50 mM HEPES pH = 7.5, 100 mM NaCl, 5 mM MgCl2). After starting the reaction with addition of 1 mM ATP, the reaction mix was incubated at 22 °C for the desired time. To quench the reaction and prepare electrophoretic samples, 1 µL of the reaction mix was added to 99 µL 1x non-reducing SDS loading buffer and frozen in liquid nitrogen. Sample content was visualized by sodium dodecyl sulfate polyacrylamide gel electrophoresis (SDS-PAGE). The transfer to polyvinylidene difluoride (PVDF) membrane was performed via a Trans-Blot® Turbo™ Transfer System (Bio-Rad, München, Germany). After transfer the membrane was blocked with TBST (Tris-buffered saline with Tween20 buffer, 20 mM Tris, 150 mM NaCl and 0.1% TWEEN 20) containing 5% w/v nonfat dry milk for 1 h, followed by α-UFC1 antibody incubation over night at 4 °C (ab189251 abcam, 1:10,000 in TBST containing 5% w/v nonfat dry milk). After washing with TBST the membrane was incubated with secondary antibody (anti-rabbit-HRP) for 1 h at RT and again washed with TBST. Detection was performed by addition of ECL solution. For quantification of UFC1 ufmylation coloc2 software implemented in ImageJ was used.

## R1-R2-R3^325–404: UBA5 C-terminal part, residues 325–404 (recombinant, E. coli)
UFM1; compared with isolated R1^325−357 peptide (ref 31)
  affinity change, UFM1: does not change significantly
UFM1; vs UFM1
  ΔG: -7.15 kcal/mol
  −T*ΔS: -1.31 kcal/mol
UFM1; vs UFM1, one-site model, single profile
  ΔS: 4.41 cal mol^−1 K^−1
UFM1; vs UFM1, value is KA × 10^−6, ± = fitting error
  KA*10^−6: 0.17 ± 0.02 M^−1
GABARAPL2; vs GABARAPL2
  ΔG: -9.25 kcal/mol
  ΔS: 2.04 cal mol^−1 K^−1
  −T*ΔS: -0.61 kcal/mol
GABARAPL2; vs GABARAPL2, value is KA × 10^−6, ± = fitting error
  KA*10^−6: 5.99 ± 0.49 M^−1
UFC1 [1]; ITC stoichiometry, peptide vs UFC1, ± = fitting error
  N: 1.03 ± 0.01
UFC1 [1]; ITC, 25 °C
  affinity increase to UFC1 vs R3^388–404: 3 fold
UFC1 [1]; ITC, 25 °C, peptide vs UFC1
  ΔG: -7.66 kcal/mol
  −T*ΔS: -0.62 kcal/mol
UFC1 [1]; ITC, 25 °C, peptide vs UFC1, one-site model, single profile
  ΔS: 2.09 cal mol^−1 K^−1
UFC1 [1]; ITC, 25 °C, peptide vs UFC1, value is KA × 10^−6, ± = fitting error
  KA*10^−6: 0.41 ± 0.02 M^−1
UFC1 [1]; ITC, VP-ITC, 25 °C, peptide ~400 µM titrated into 20–25 µM UFC1, 25 mM HEPES pH 7.5, 100 mM NaCl, one-site model, single ITC profile
  Kd: 2.4 µM
UFC1 [1]; ITC, VP-ITC, 25 °C, peptide ~400 µM titrated into 20–25 µM UFC1, 25 mM HEPES pH 7.5, 100 mM NaCl, one-site model, single ITC profile, ± = fitting error
  ΔH: -7.04 ± 0.07 kcal/mol
UFC1 [2]
  effect on UFC1~UFM1 conjugation (in words): gets rescued
